The text below walks through data of US10274499B2, “SH2 domain variants” (THE UNIVERSITY OF WESTERN ONTARIO, priority 2012, dated 2019).

One may read the Kd as the equilibrium constant for the complex coming apart. A high value points to lower affinity.

Residue numbers refer to the chain shown, from its start. In names and notes the source's numbering stands.

In test [1] the test system is seven fluorescein-labeled pTyr-containing peptides. Put plainly: in-solution fluorescence polarization binding assay, set of seven peptides. Particulars: average over seven peptides, relative to the wild type of the same SH2 domain. The method, then: (§1) Each peptide was synthesized on the TentaGel amide resin (INTAVIS Inc.) and N-terminally labeled with fluorescein using NHS-fluorescein (Thermo Fisher Scientific). Each of the 13 variant and the wild-type SH2 domain was produced by overexpression in the Escherichia coli BL21(DE3) strain cultured in LB media (EMD Chemicals). Expression was induced by 0.3 mM isopropyl β-D-1-thiogalactopyranoside (IPTG), and the cell culture was incubated for 5 hours at 37° C. The cells were harvested by centrifuge, and broken on ice, in buffer solution containing 20 mM sodium phosphate, 0.1 M NaCl, 20 mM imidazole, 1 mg/ml lysozyme and 1% Triton-X 100, adjusted at pH 7.8. Affinity purification was performed with the Ni-NTA agarose resin (Qiagen Inc.), according to the manufacturer's instruction. The purified material was dialyzed against phosphate-buffered saline (PBS), pH 7.4, at 4° C. overnight. Measurements of fluorescence polarization were conducted by titrating the SH2 domain concentration, while keeping the peptide concentration constant. Kd values were calculated with the GraphPad Prism software, by assuming the one-site binding model (GraphPad Software).
(§2) The determined Kd values of interaction between the 14 SH2 domains (including the wild-type) and seven peptides were listed in FIG. 7(a).
The wild-type and variant Src SH2 domains were expressed in E. coli BL21(DE3) strain grown in the LB media, by inducing protein expression with 0.3 mM IPTG, and incubating the cell culture at 30° C. for six hours. Cells were harvested by centrifuge, and broken on ice in buffer solution containing 20 mM sodium phosphate, 0.1 M NaCl, 20 mM imidazole, 1 mg/ml lysozyme, 1% Triton-X 100, adjusted at pH 7.8. Affinity purification was performed with the Ni-NTA, agarose resin, according to the manufacturer's instruction. […]
Fluorescence polarization assay was conducted to determine Kd values of the interaction between the wild-type or variant Src SH2 domain and seven fluorescein-labeled pTyr-containing peptides (FIG. 9a).
In general terms: Polarisation of emitted light reports the rotation of a fluorescent probe.

Test [2] deals with non-phosphorylated fluorescein-GGYGG peptide (SEQ ID NO: 24). Put plainly: fluorescence polarization binding assay, non-phosphorylated GGYGG peptide. The method, then:
as §1, §2

Test [3] has as its target T1, EGFR (Homo sapiens, UniProt P00533).
T1 construct: endogenous in cells; host or cells: HEK 293
Put plainly: immunoprecipitation of GFP-fused SH2 domains with EGFR in HEK 293 cells. The format is cell-based. The conditions noted are these: GFP-fusion expressed in HEK 293 cells, EGF 100 ng/ml, anti-GFP and anti-EGFR antibodies. The source says: The three variant SH2 domains mentioned in the previous sentence were dubbed as 8V/10A/15L-substituted SH2 domains, or the TrM SH2 domains, in the following descriptions, as well as in FIG. 11 and FIG. 12. The wild-type (Wt) and TrM SH2 domains, subcloned into the pEGFPC2 vector, were expressed in the HEK 293 cells as a GFP-fusion protein. Methods used in this and the following sections are described below.
Anti-GFP rabbit polyclonal antibody was purchased from Sigma-Aldrich. Anti-EGFR rabbit polyclonal antibody was purchased from Millipore. Anti-p44/42 MAPK (Erk1/2) mouse monoclonal antibody, and anti-phospho-p44/42 MAPK (Thr202/Tyr204) mouse monoclonal antibody were purchased from Cell Signaling. HEK 293 cells were grown in Dulbecco's modification of Eagle's medium (DMEM, Sigma-Aldrich) supplemented with 10% fetal bovine serum (FBS, SAFC Biosciences), 50 units/ml penicillin and 50 μg/ml streptomycin (GIBCO Invitrogen Corp.) in a humidified atmosphere of 5% CO2 in air at 37° C. EGF (Invitrogen) at a final concentration of 100 ng/ml was added to the medium at the indicated time point. Transient transfections were carried out with jet-PEI (PolyPlus-Transfection; Illkirch, France) according to manufacturer's instruction.
HEK 293 cells were transfected with the SH2 domain construct subcloned in the pEGFPC2 vector, and incubated in serum-containing full medium for 24 h followed by serum-starvation for 16 h and then EGF (100 ng/ml) treatment for 10 min, pervanadate treatment for 10 min. The whole cell lysates were prepared and subjected to IB analysis to detect phosphorylated Erk and total Erk.
HEK 293 cells were lysed with cold lysis buffer (1% NP-40, 50 mM Tris-HCl pH 7.4, 150 mM NaCl, 2 mM EDTA, 50 mM NaF, 10% Glycerol and protease inhibitor cocktail diluted at 1:1000). After centrifugation at 13,000*g for 15 min, the supernatants were collected. After clearance of the lysate with appropriate pre-immune serum and protein G (Roche), immunoprecipitation (IP) and immunoblotting (IB) were performed. […]

For test [4], the system named is tyrosine-phosphorylated proteins from HeLa cell lysate. Put plainly: GST pulldown assay, pervanadate-treated HeLa cell lysate. The format is binding. The conditions noted are these: GST fusion, compared to the Wt SH2 domain, 4G10 immunoblot. How it is done:
The wild-type (Wt) and triple mutant (TrM) Fyn SH2 domains (Ala^139-Gly^249) were respectively subcloned into the pETM30 vector (Dümmler, et al. Microb. Cell Fact. 4, 34 (2005)). The Fyn SH2 domain constructs contain a FLAG tag sequence ([…]) (SEQ ID NO: 27) at the C-terminus. To create the GST control vector, a stop codon was inserted after the GST tag sequence of the original pETM30 vector. The GST and GST-SH2 proteins were expressed in E. coli BL21(DE3). HeLa cells were treated with 50 μM pervanadate for 10 min at 37° C. HeLa cells were lysed on ice in lysis buffer containing 0.5% NP-40, 50 mM HEPES pH 7.4, 1 mM magnesium chloride, 150 mMKCl, and the COMPLETE protease inhibitor cocktail (Roche). The GST pulldown assay was conducted as described (Li et al. J. Biol. Chem. 278, 3852-3859 (2003)).

The target of test [5] is fluorescein-GGpYGG peptide (SEQ ID NO: 23). Put plainly: fluorescence polarization binding assay, GGpYGG peptide.
In test [6] the test system is phosphorylated proteins (ALK) from H370 cell lysate. The experiment in a line: GST pulldown, H370 cell lysate with ALK activation by mAb46. It is filed as binding, human. Particulars: GST fusion, compared to the Wt. How it is done: The Wt human Src (hSrc) SH2, the TrM hSrc SH2, and Wt Rous sarcoma virus Src (vSrc) SH2 domains were prepared, respectively, as GST tag fusion proteins. The vSrc SH2 domain is almost identical to the hSrc SH2 domain (there are three-residue differences in the SH2 domain region, and the differences are located outside of the target-binding surface). 5 μg of the GST-tagged SH2 domain was incubated with 500 μg of H370 cell lysate treated with or without the ALK activation antibody mAb-46 at room temperature for 30 min. 20 μl of glutathione sepharose beads was then added for another 30 minincubation at room temperature. As a positive control, the anti-pTyr antibody P-Tyr-100 (Cell Signaling, #9411) was used for immunoprecipitation. 4 μl of the P-Tyr-100 antibody was incubated with 500 μg H370 cell lysate treated with or without the ALK activation antibody mAb-46 for 2 hours at 4° C. Next, 20 μl protein G beads was added for another incubation for two hours at 4° C. The glutathione beads or protein G beads were washed with 1×PBS (phosphate buffered saline) three times. The beads were added to 30 μl 2×SDS loading buffer and boiled for 10 min. The samples were resolved on an 8% Bis-Tris SDS-PAGE gel. The gel was applied to Western blotting to transfer the samples onto PVDF membrane (Millipore) and the proteins were probed with the P-Tyr-100 antibody. […]
Chain of phosphorylated proteins (ALK) from H370 cell lysate (Q9UM73 1060-1620 limits assumed): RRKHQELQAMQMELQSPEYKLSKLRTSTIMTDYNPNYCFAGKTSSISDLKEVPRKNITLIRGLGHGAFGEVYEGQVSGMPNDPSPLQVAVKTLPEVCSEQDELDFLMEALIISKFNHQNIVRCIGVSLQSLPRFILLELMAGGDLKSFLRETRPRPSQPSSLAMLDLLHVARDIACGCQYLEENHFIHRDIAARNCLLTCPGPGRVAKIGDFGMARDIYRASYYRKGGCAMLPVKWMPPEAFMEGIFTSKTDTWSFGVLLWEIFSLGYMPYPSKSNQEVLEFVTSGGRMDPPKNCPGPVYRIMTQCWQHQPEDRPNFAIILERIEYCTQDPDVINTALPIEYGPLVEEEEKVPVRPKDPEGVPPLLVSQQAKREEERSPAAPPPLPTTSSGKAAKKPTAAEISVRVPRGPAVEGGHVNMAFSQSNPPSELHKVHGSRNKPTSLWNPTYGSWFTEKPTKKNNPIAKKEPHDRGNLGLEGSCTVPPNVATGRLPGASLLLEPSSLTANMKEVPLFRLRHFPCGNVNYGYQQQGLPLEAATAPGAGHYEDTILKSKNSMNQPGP

The subject of test [7] is tyrosine-phosphorylated proteins of U937 cell lysate. Put plainly: Far-Western blotting, pervanadate-treated U937 cell lysate. The conditions noted are these: GST fusion 3.5 μg/ml. It is filed as binding, human. The method, then:
The GST protein and GST-Src SH2 TrM were prepared as 3.5 μg/ml concentration in the TBS buffer (50 mM Tris-HCl pH 7.2, 137 mM NaCl). The cultured U937 cells were treated with or without 50 μM pervanadate in PBS for 10 min at 37° C. The cells were lysed in the buffer (0.5% NP-40, 50 mM HEPES pH 7.4, 1 mM magnesium chloride, 150 mMKCl) with sonication on ice, and supernatant was loaded on an SDS-PAGE gel for separation and following transfer to the PVDF membrane (Millipore). The membrane was blocked with 5% milk in TBS-T (0.5% Tween-20 in TBS) overnight at 4° C., and probed with 3.5 μg/ml GST proteins for 1 hour at room temperature. The membrane was washed with TBS-T, and incubated with anti-GST antibody-HRP (horseradish peroxidase) conjugate (Sigma, #A7340) for 1 hour at room temperature. The signal from HRP was detected as enhanced chemiluminescence on an X-ray film.

The subject of test [8] is A549 cells. The experiment in a line: cell viability after gold nanoparticle delivery of SH2 protein, EGF treatment, A549. The conditions noted are these: 100 ng/ml EGF, compared with the Wt SH2 domain. It is filed as cell-based. How it is done:
(§3) The hexa-histidine-tagged SrcWt and TrM proteins were purified to homogeneity in 5 mM HEPES buffer (pH 7.6). 1 nM of gold nanoparticle was mixed with 100 nMWt or TrM variant protein. The MCF-7 and A549 cells were starved six hours before treatment. The cells were then treated with 100 ng/ml EGF for 20 hours. The nanoparticle-protein mixture was applied to cells. Cells were trypsinized and stained using 0.4% trypan blue (Sigma-Aldrich) and viable and total cell numbers were counted haemacytometer with the use of a microscope according to manufacturer's instruction.

The test system of test [9] is MCF-7 cells. The experiment in a line: cell viability after gold nanoparticle delivery of SH2 protein, EGF treatment, MCF-7. The format is cell-based. Particulars: MCF-7 (no EGF receptor), 100 ng/ml EGF. The method, then: as §3

Chain of non-phosphorylated fluorescein-GGYGG peptide (SEQ ID NO: 24) (as listed by the source): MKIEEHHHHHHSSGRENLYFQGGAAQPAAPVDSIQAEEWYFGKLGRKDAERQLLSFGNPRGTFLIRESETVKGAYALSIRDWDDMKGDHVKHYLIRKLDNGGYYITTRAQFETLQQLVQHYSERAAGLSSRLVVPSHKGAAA

B1: T8V/S10A/K15L: variant Fyn SH2 domain: Thr position 8 to Val, Ser position 10 to Ala, Lys position 15 to Leu; SEQ ID NO:17 (protein)
chain: APVDSIQAEEWYFGKLGRKDAERQLLSFGNPRGTFLIRESETVKGAYALSIRDWDDMKGDHVKHYLIRKLDNGGYYITTRAQFETLQQLVQHYSERAAGLCCRLVVPCHKG
modifications: Synthetic construct T8V/S10A/K15L
Consider B1, for which the “average affinity increase, Kd[wild-type] divided by Kd[variant]” value in test [1] came to 293 fold. Besides, the “binding to non-phosphorylated peptide” value in test [2] was “did not show detectable binding”. The “binding to EGFR (immunoprecipitation)” value in test [3] is reported as “strong binding”. For the same molecule, the “ability to bind tyrosine-phosphorylated proteins (GST pulldown)” value in [4] is on record as “enhanced ability”.

B2: T8I/S10A/K15L: variant Fyn SH2 domain; SEQ ID NO:16 (protein)
chain: B1 chain with V43I
modifications: Synthetic construct T8I/S10A/K15L
B2: the “average affinity increase, Kd[wild-type] divided by Kd[variant]” value in test [1] was 86.4 fold.

B3: A8V/S10A/K15L: variant human Grb2 SH2 domain, Met55 to Pro158 with A8V, S10A, K15L substitutions; SEQ ID NO: 22 (protein)
chain: MKPHPWFFGKIPRAKAEEMLSKQRHDGAFLIRESESVPGDFALSVKFGNDVQHFLVLRDGAGKYFLWVVKFNSLNELVDYHRSTSVSRNQQIFLRDIEQVPQQP
modifications: Synthetic construct Grb2_triple
Turning to B3, in [3], the “binding to EGFR (immunoprecipitation)” value is “strong binding”.

B4: T8V/C10A/K15L: variant human Src SH2 domain, position 8 Val, position 10 Ala, position 15 Leu; SEQ ID NO:21 (protein)
chain: DSIQAEEWYFGKITRRESERLLLNAENPRGTFLVRESETVKGAYALSVSDFDNAKGLNVKHYLIRKLDSGGFYITSRTQFNSLQQLVAYYSKHADGLCHRLTTVCPTSK
modifications: Synthetic construct T8V/C10A/K15L
For B4, in test [1], the “average affinity increase, Kd[wild-type] divided by Kd[variant]” value stood at 238 fold. In test [5], this molecule displayed a Kd of 510 nM. For the same molecule, the “binding to EGFR (immunoprecipitation)” value in [3] was “strong binding”. The “capture of phosphorylated proteins from H370 cell lysate upon stimulation” value in test [6] is reported as “substantially larger amount”. In addition, the “detection of tyrosine-phosphorylated proteins by Far-Western blotting” value in test [7] is listed as “broad detection of tyrosine-phosphorylated proteins”. Besides, the “cell viability upon EGF treatment” value in test [8] was “reduced cell variability”. Also, the “cell viability upon EGF stimulation” value in test [9] is given as “did not significantly affect cell variability”.
